The source of these data is article PMC5609902 (2017).

Usually koff stands for the rate constant with which the complex falls apart. Read a low koff as slow dissociation. Broadly, the Kd is the equilibrium constant for the complex coming apart. Read a high Kd as lower affinity.

The chains are these.
B2: JRFL rgp120 (natural protein)
chain: not shown

Assay in all cases: SPR
The target in assay [1] is B2.
Assay [2] has as its target CN54 rgp120 (HIV-1 CN54 (CRF07_BC)).
Assay [3] has as its target b12.
Assay [4] concerns the target VRC01.

B1: Y498 IgG1 (antibody, V domains shown)
VH: KVQLVQSGTELKKPGASGKVSCKASGYTFNSNGLNWVRQAPGQGLEWVGWISGHSDETKHAQNFQGRLTLTTDTSTNTAYMELRSLRSDDTAVYYCARSLLRSLERLMGGTDAFDIWGQGTLVTVSS
VL: not shown
With B1, the figures for the off-rate (koff) in assay [1] and in assay [2] were 0.000105 s⁻¹ and 2.3e-05 s⁻¹, respectively.

With B2, in assay [3], the Kd was found to be 1.11 nM and the off-rate constant (koff) was determined as 0.000567 s⁻¹. In assay [4], this molecule came in with a dissociation constant Kd of 5.35 nM and a koff of 0.000167 s⁻¹.
